Blank lines part the entries; values can stand above or below the binder they belong to. Where no end group is shown, it is not given here.
B1: 140-AP (fusion protein containing AP and the 1-40 peptide, residues #1055-1094 of hNogoA) (ligand)
chain: RIYKGVIQAIQKSDEGHPFRAYLESEVAISEELVQKYSNS
modifications: also: fused to alkaline phosphatase (AP), order not given here
notes: not shown: alkaline phosphatase of vector pcAP-6
B2: AP-Nogo (His-AP-Nogo, 66 amino acid) (ligand)
chain: HHHHHHIIPVEEENPDFWNREAAEALGAAKKLQPAQTAAKNLIIFLGDGMGVSTVTAARILKGQKKDKLGPEIPLAMDRFPYVALSKTYNVDKHVPDSGATATAYLCGVKGNFQTIGLSAAARFNQCNTTRGNEVISVMNRAKKAGKSVGVVTTTRVQHASPAGTYAHTVNRNWYSDADVPASARQEGCQDIATQLISNMDIDVILGGGRKYMFRMGTPDPEYPDDYSQGGTRLDGKNLVQEWLAKRQGARYVWNRTELMQASLDPSVTHLMGLFEPGDMKYEIHRDSTLDPSLMEMTEAALRLLSRNPRGFFLFVEGGRIDHGHHESRAYRALTETIMFDDAIERAGQLTSEEDTLSLVTADHSHVFSFGGYPLRGSSIFGLAPGKARDRKAYTVLLYGNGPGYVLKDGARPDVTESESGSPEYRQQSAVPLDEETHAGEDVAVFARGPQAHLVHGVQEQTFIAHVMAFAACLEPYTACDLAPPAGTTDAAHPGRIYKGVIQAIQKSDEGHPFRAYLESEVAISEELVQKYSNSALGHVNCTIKELRRLFLVDDLVDSLK
notes: also called AP fused Nogo-66
B3: murine NgR (Nogo-66 receptor) expressed on COS-7 cells (receptor)
chain: CPGACVCYNEPKVTTSCPQQGLQAVPTGIPASSQRIFLHGNRISHVPAASFQSCRNLTILWLHSNALARIDAAAFTGLTLLEQLDLSDNAQLHVVDPTTFHGLGHLHTLHLDRCGLRELGPGLFRGLAALQYLYLQDNNLQALPDNTFRDLGNLTHLFLHGNRIPSVPEHAFRGLHSLDRLLLHQNHVARVHPHAFRDLGRLMTLYLFANNLSMLPAEVLMPLRSLQYLRLNDNPWVCDCRARPLWAWLQKFRGSSSEVPCNLPQRLADRDLKRLAASDLEGCAVASGPFRPIQTSQLTDEELLSLPKCCQPDAADKASVLEPGRPASAGNALKGRVPPGDTPPGNGSGPRHINDSPFGTLPSSAEPPLTALRPGGSEPPGLPTTGPRRRPGCSRKNRTRSHCRLGQAGSGASGTGDAEGS
notes: Library clone or pcDNA3.1 construct transfected into COS-7 cells; GPI-linked protein, cleavage site of the GPI signal not applied here; also called mouse NgR; mNgR
B4: NgLRR- (residues 306 to 473 of mNgR) (receptor, not shown: small tags and cut ends)
chain: LEGCAVASGPFRPIQTSQLTDEELLSLPKCCQPDAADKASVLEPGRPASAGNALKGRVPPGDTPPGNGSGPRHINDSPFGTLPSSAEPPLTALRPGGSEPPGLPTTGPRRRPGCSRKNRTRSHCRLGQAGSGASGTGDAEGS
notes: In pSecTag2, on COS-7 cells; also called complete LRR domain deleted
B5: NgRΔNT (residues 58 to 473 of mNgR) (receptor, not shown: small tags and cut ends)
chain: SSQRIFLHGNRISHVPAASFQSCRNLTILWLHSNALARIDAAAFTGLTLLEQLDLSDNAQLHVVDPTTFHGLGHLHTLHLDRCGLRELGPGLFRGLAALQYLYLQDNNLQALPDNTFRDLGNLTHLFLHGNRIPSVPEHAFRGLHSLDRLLLHQNHVARVHPHAFRDLGRLMTLYLFANNLSMLPAEVLMPLRSLQYLRLNDNPWVCDCRARPLWAWLQKFRGSSSEVPCNLPQRLADRDLKRLAASDLEGCAVASGPFRPIQTSQLTDEELLSLPKCCQPDAADKASVLEPGRPASAGNALKGRVPPGDTPPGNGSGPRHINDSPFGTLPSSAEPPLTALRPGGSEPPGLPTTGPRRRPGCSRKNRTRSHCRLGQAGSGASGTGDAEGS
notes: In pSecTag2, on COS-7 cells; vector tags as for wtNgR; also called amino terminus deletion

Experiments:
[1] = target: B3; assay: 140-AP binding to COS-7 cells expressing mNgR, bound/free plot
Method: To determine if AP-fused deletion mutants of Nogo-66 bind mouse NgR (“mNgR”), COS-7 cells were transfected with a plasmid encoding the mouse NgR sequence ligated into pcDNA3.1. 48 hours after transfection, cells were washed with HBH (Hanks balanced salt solution containing 20 mM sodium Hepes, pH 7.05, and 1 mg ml⁻¹ bovine serum albumin) and then incubated with condition medium containing one of the AP-fusion proteins described above for 2 hours at 37° C. Cells were then washed, fixed, and left in HBH at 67° C. for 14-16 h to inactivate endogenous AP. AP-fusion protein binding to NgR expressing COS-7 cells was detected with the substrates NBT and BCIP (FIG. 13b).
FIG. 14b graphically depicts the binding of 140-AP to COS-7 cells expressing mNgR as measured as a function of 140-AP concentration.

[2] = target: T1, Nogo binding sites (axonal Nogo receptors) on chick dorsal root ganglion neurons (chick); assay: AP-fusion ligand binding to dissociated neurons, Scatchard analysis
T1 construct: Target is defined only by the cells that carry it; also called neuronal receptor site
Method: Purified protein was subjected to SDS-PAGE and stained for total protein with CBB or immunoblotted with anti-Nogo antibodies (anti-Nogo). Molecular weight markers of 200, 116, 97, 65 and 45 kDa are shown at left, and the migration of AP-Nogo at right. (b) is a photograph of dissociated chick E12 dorsal root ganglion neurons that were incubated with 10 nM AP-Nogo or 10 nM AP-Nogo+160 nM GST-Nogo for sixty minutes at 23° C. The cells were washed, fixed and incubated at 60° C. in order to inactivate endogenous AP. Bound AP-Nogo was detected by incubation with nitro blue tetrazolium. Note the intense neuronal staining by AP-Nogo that is displaced by unlabeled ligand. (c) is a graph displaying experimental data where the potency of AP-Nogo and GST-Nogo in E12 chick dorsal root ganglion growth cone collapse assays was assessed as described in the Example section. […] The means±s.e.m. calculated from five to eight determinations are illustrated. (d) is a graph displaying experimental data where the binding of 10 nM AP-Nogo to chick E12 dorsal root ganglion neurons was assessed alone, or in the presence of 100 nM GST-Nogo or in the presence of 4 μM Pep2, which was quantified from experiments as in (b) by the method described in the Example section. The means±s.e.m. calculated from eight determinations are shown. […]

[3] = target: T1, Nogo binding sites (axonal Nogo …); assay: cell-based or functional assay
[4] = target: T2, AP (alkaline phosphatase alone) (UniProt P05187 23-511); assay: AP binding to COS-7 cells transfected with the mouse NgR clone
T2 construct: Control without Nogo residues; also called AP alone
Source text: This assay was utilized for expression cloning of a NgR. Pools of a mouse adult brain cDNA expression library representing 250,000 independent clones were transfected into non-neuronal COS-7 cells. […] Single cDNA clones encoding a Nogo biding site were isolated by sib-selection from each of the two positive pools. The two independently isolated clones are identical to one another except for a 100 bp extension of the 5′ untranslated region in one clone. […] Furthermore, GST-Nogo displaces AP-Nogo from these sites.

[5] = target: B2; assay: AP-Nogo binding to COS-7 cells transfected with the mouse NgR clone
Source text: A Nogo binding assay was developed which utilizes a method widely used in examining semaphorin and ephrin axonal guidance function (Flanagan & Vanderhaeghen, (1998) Annu. Rev. Neurosci. 21, 309-345; Takahashi et al., (1999) Cell 99, 59-69). It involves fusing a secreted placental alkaline phosphatase (AP) moiety to the ligand in question to provide a biologically active receptor binding agent which can be detected with an extremely sensitive colorimetric assay. For Nogo, an expression vector was created encoding a signal peptide, a His6 tag for purification, AP and the 66 amino acid active domain of Nogo. The fusion protein can be purified from the conditioned medium of transfected cells in milligram amounts (FIG. 5). This protein is biologically active as a growth cone collapsing agent, with an EC₅₀ of 1 nM. […] Binding is blocked by GST-Nogo and by the antagonistic 25 amino acid peptides, consistent with competitive binding to a neuronal receptor site.
This assay was utilized for expression cloning of a NgR. Pools of a mouse adult brain cDNA expression library representing 250,000 independent clones were transfected into non-neuronal COS-7 cells. […] Single cDNA clones encoding a Nogo biding site were isolated by sib-selection from each of the two positive pools. […]

[6] = target: B2; assay: AP-fusion binding to COS-7 cells expressing mouse NgR
[7] = target: B2; assay: AP-hNogo-A(1055-1120) binding to transfected COS-7 cells
Method: Forty-eight hours after the transfection, the transfected COS-7 cells were washed with hanks balanced salt solution containing 20 mM sodium HEPES, pH 7.05, and 1 mg/ml bovine serum albumin (BSA) [hereinafter “HBH”]. […] AP-fusion protein was detected as previously described for AP-Sema3A (Takahashi et al., Nature Neurosci. 1:487-493, 1998).
Because the NgRΔ1-2, NgRΔ3-4, NgRΔ5-6, and NgRΔ7-8 deletions remove entire LRR domains it is unlikely that the entire tertiary structure of mNgR is disrupted.

[8] = target: T3, AP-NgR (mNgR residues 27-451 fused to 6xHis-placental alkaline phosphatase) (mouse, UniProt P05187 23-511 (human entry)); assay: AP-NgR binding to transfected COS-7 cells
T3 construct: Soluble probe in the self-association test

[9] = target: B3; assay: binding to mNgR, data not shown

Binder: B1
Kd [1]: 8 nM

Binder: B2
Kd [2]: 3 nM
growth cone collapse, chick E12 dorsal root ganglion (EC50) [3]: 1 nM

Binder: B3
binding result [4]: no binding
Kd [5]: ~3 nM
Kd [6]: ~7 nM

Binder: B4
binding result [7]: no binding
binding result [8]: no binding

binding result [9]: no binding
Binder: IQKSDEGHPFRAYLESEVAISEELVQKYSNS [peptide having residues 10-40 of hNogoA(#1055-1120)]

Binder: B5
binding result [7]: no binding
binding result [8]: no binding
